T1: Full length of LAG-3 (human LAG-3 over-expressed on CHO-S cells) (human, UniProt P18627 23-525)
T1 construct: also called LAG-3 over-expressing CHO-S cells; full-length LAG-3
T1 sequence: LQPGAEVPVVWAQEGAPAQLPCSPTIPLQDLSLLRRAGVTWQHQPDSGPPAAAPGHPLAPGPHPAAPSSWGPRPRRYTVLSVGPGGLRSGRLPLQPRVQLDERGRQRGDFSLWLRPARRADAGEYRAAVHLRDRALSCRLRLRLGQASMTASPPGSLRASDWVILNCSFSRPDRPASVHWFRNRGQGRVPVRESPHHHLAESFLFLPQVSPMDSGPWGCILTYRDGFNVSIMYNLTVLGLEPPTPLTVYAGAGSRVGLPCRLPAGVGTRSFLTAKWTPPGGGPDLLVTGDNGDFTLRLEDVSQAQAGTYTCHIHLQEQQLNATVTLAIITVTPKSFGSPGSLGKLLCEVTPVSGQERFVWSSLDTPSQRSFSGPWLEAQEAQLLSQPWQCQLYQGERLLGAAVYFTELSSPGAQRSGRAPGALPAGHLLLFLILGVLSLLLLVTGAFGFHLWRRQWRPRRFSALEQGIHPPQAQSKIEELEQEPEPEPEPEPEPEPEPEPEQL

T2: LAG-3 extracellular domain with a Flag tag (human, UniProt P18627 23-434)
T2 construct: also called LAG-3-Flag; LAG-3-Flag antigen
T2 sequence: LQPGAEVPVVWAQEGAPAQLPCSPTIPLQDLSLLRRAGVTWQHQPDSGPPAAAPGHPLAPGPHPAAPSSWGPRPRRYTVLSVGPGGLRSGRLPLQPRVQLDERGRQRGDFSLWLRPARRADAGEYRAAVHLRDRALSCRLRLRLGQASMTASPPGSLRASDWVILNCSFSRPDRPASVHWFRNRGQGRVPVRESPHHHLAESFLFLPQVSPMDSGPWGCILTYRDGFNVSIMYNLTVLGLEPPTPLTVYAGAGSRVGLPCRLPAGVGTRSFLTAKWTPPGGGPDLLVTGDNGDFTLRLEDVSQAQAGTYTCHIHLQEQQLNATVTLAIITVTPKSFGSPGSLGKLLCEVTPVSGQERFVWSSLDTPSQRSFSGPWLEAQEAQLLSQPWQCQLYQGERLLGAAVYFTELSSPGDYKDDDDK


Experiments:
[1] = molecular target: T1, Full length of LAG-3 (human LAG-3 …); test: cell ELISA on fixed CHO-S cells overexpressing full-length human LAG-3
Experimental: 100 μl/well of cells were seeded into 96-well plate at a density of 4×10⁵/ml and incubated overnight. The supernatant was discarded, and the plate was washed three times with PBS, and was fixed with 4% PFA (100 μl/well) for half an hour at room temperature, and then the plate was washed three times with PBS. After discarding the liquid, the plate was blocked with 200 μl/well of blocking solution containing 5% skim milk (Bright Dairy, skim milk powder) diluted in PBS, and incubated at 37° C. for 2.5 hours. After blocking, the blocking solution was discarded and the plate was washed 5 times with PBST buffer (PH7.4 PBS containing 0.05% tween-20), added with 50 μl/well of various concentrations of antibodies to be tested (Hybridoma purified antibody or humanized antibody) which have been diluted with sample diluent, and then incubated in incubator at 37° C. for 1 h. The plate was washed 5 times with PBST after incubation, added with 100 μl/well of goat anti-mouse (Jackson Immuno Research, Cat No. 115-035-003) or goat anti-human secondary antibody (Jackson Immuno Research, Cat No. 109-035-003) labeled with HRP, diluted in sample diluent, and the plate was incubated at 37° C. for 1 h. […]

[2] = molecular target: T3, Fusion protein of LAG-3 extracellular region and hIgG1 Fc (human); test: ELISA, LAG-3-Fc captured by anti-human Fc on plate (which fusion: inferred)
T3 construct: Limits of the signal peptide are marked only by lost underlining; also called LAG-3-Fc; LAG-3-Fc fusion protein
Source text: The binding ability of anti-LAG-3 antibody to human LAG-3 protein was detected by ELISA assay. LAG-3 fusion protein with Fc or mFc tag was immobilized into 96-well microtiter plate by binding to anti-Fc or anti-mFc antibody coated on the microtiter plate, the strength of the signal after the addition of the antibody was used to determine the binding activity of the antibody to LAG-3, the specific experimental method is as follows.
The goat anti-human Fc antibody (Jackson Immuno Research, Cat No. 109-005-008) or goat anti-mouse Fc antibody (Sigma, Cat No. M3534-1ML) was diluted to a concentration of 2 μg/ml with PBS buffer at pH 7.4 (Sigma, Cat No. P4417-100TAB), and added to a 96-well plate at a volume of 50 μl/well and then, the plate was incubated in the incubator at 37° C. for 2 hours. After discarding the liquid, the plates were blocked with 200 μl/well of blocking solution containing 5% skim milk (Bright Dairy, skim milk powder) in PBS, and incubated in the incubator at 37° C. for 2.5 hours or overnight at 4° C. (16-18 hours). After blocking, the blocking solution was discarded and the plate was washed 5 times with PBST buffer (PH7.4 PBS containing 0.05% tween-20). […]

[3] = molecular target: T2, LAG-3 extracellular domain with a Flag …; test: SPR (Biacore), antibody captured on anti-mouse capture chip, LAG-3-Flag in flow
Source text: 1. […] Then, the LAG-3-Flag antigen (produced in-house, SEQ ID NO:1) was flowed through the surface of the biochip, and the reaction signal was detected in real time by using a Biacore instrument to obtain the binding and dissociation curves, the value of affinity was obtained by fitting, see above table 2. After each cycle of dissociation was finished in the experiment, the biochip was washed and regenerated with a regeneration solution provided in the mouse anti-capture kit.

Row | EC50 [1] [pM] | EC50 [2] [pM] | Kd [3] [pM] | Binder
1 | 191 | 129 | 426 | mAb229 (antibody, V domains shown, Murine hybridoma antibody; also called LAG-3 antibody mAb229; hybridoma clone mAb229) VH: QIQLVQSGPELKKPGETVKISCKASGYTFTTSGMSWVKQAPGKGLKWMGWINTYSGVPTYADDFKGRFAFSLETSASTAYLQINNLKNEDTATYFCARDNYDARDVYYYAMDYWGQGTSVTVSS VL: DIQMTQSPASLSVSVGETVTITCRASENIYSNLAWYQQKQGKSPQLLVYAATNLADGVPSRFSGSGSGTQYSLKINSLQSEDFGSYYCQHFWITPWTFGGGTKLEIK
2 | 279 | 172 | 470 | mAb303 (antibody, V domains shown, Murine hybridoma antibody; also called LAG-3 antibody mAb303; hybridoma clone mAb303) VH: EVQLQQSGPVLVKPGASVKMSCKASGYTLTDYYMNWVKQSHGKSLEWIGVINPYNGDTAYNQKFKGKATLTVDKSSNTAYMEINSLTSEDSAVYYCTRDDGYYDYYFDVWGTGTTVTVSS VL: DIQMTQSPSSLSASLGERVILTCRASQDIGSRLNWLQQGPDGTFKRLIYATSTLDSGVPKRFSGSRSGSDFSLTISSLESEDFVDYYCLQLASSPPTFGGGTKLEIK
